Reference: the supplement of paper PMC10567573

B1: DLC1 (parent)
chain: AEVVKIRDSFSNQNTETKDTKSR
B2: ANKRD17 (parent)
chain: EMVRFLLEAGADQEHKTDEMHTAL

Variants of: B1
Assay: protein stability index of a GFP-peptide fusion (GPS, HEK-293T) (PSI 1-6); higher = more stable
Conditions: c terminus: native
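Also: lentivirally expressed fusions sorted by FACS into six bins by GFP to DsRed ratio, PSI derived from sequencing read proportions per bin multiplied by bin number.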

Variant | protein stability index
AEVVKIRDSFSNQNTETKITKSR | 2.29
AEVVKIRDSFSNQNTETKFTKSR | 1.92
AEVVKIRDSFSNQNTETKSTKSR | 2.19
AEVVKIRDSFSNQNTETKMTKSR | 1.95
AEVVKIRDSFSNQNTETKTTKSR | 3.09
AEVVKIRDSFSNQNTETKGTKSR | 2
AEVVKIRDSFSNQNTETKHTKSR | 2.07
AEVVKIRDSFSNQNTETKYTKSR | 2.69
AEVVKIRDSFSNQNTETKQTKSR | 1.99
AEVVKIRDSFSNQNTETKATKSR | 1.79
AEVVKIRDSFSNQNTETKPTKSR | 3.03
AEVVKIRDSFSNQNTETKCTKSR | 1.83
AEVVKIRDSFSNQNTETKNTKSR | 3.63
AEVVKIRDSFSNQNTETKRTKSR | 1.84
AEVVKIRDSFSNQNTETKLTKSR | 2.1
AEVVKIRDSFSNQNTETKVTKSR | 1.91
AEVVKIRDSFSNQNTETKKTKSR | 1.85
AEVVKIRDSFSNQNTETKWTKSR | 1.45
AEVVKIRDSFSNQNTETKETKSR | 2.31
AEVVKIRDSFSNQNTETTDTKSR | 2.2
AEVVKIRDSFSNQNTETPDTKSR | 2.15
AEVVKIRDSFSNQNTETVDTKSR | 2.32

Variant | protein stability index
AEVVKIRDSFSNQNTETRDTKSR | 1.5
AEVVKIRDSFSNQNTETGDTKSR | 2.13
AEVVKIRDSFSNQNTETQDTKSR | 1.84
AEVVKIRDSFSNQNTETIDTKSR | 2.26
AEVVKIRDSFSNQNTETHDTKSR | 2.98
AEVVKIRDSFSNQNTETYDTKSR | 1.94
AEVVKIRDSFSNQNTETEDTKSR | 1.7
AEVVKIRDSFSNQNTETNDTKSR | 1.98
AEVVKIRDSFSNQNTETMDTKSR | 1.91
AEVVKIRDSFSNQNTETLDTKSR | 3.07
AEVVKIRDSFSNQNTETSDTKSR | 1.98
AEVVKIRDSFSNQNTETFDTKSR | 2.59
AEVVKIRDSFSNQNTETWDTKSR | 2.05
AEVVKIRDSFSNQNTETKDFKSR | 1.36
AEVVKIRDSFSNQNTETKDPKSR | 2.88
AEVVKIRDSFSNQNTETKDNKSR | 3.98
AEVVKIRDSFSNQNTETKDQKSR | 2.42
AEVVKIRDSFSNQNTETKDEKSR | 1.64
AEVVKIRDSFSNQNTETKDCKSR | 1.93
AEVVKIRDSFSNQNTETKDYKSR | 2.1
AEVVKIRDSFSNQNTETKDLKSR | 2.71
AEVVKIRDSFSNQNTETKDVKSR | 2.61

Variant | protein stability index
AEVVKIRDSFSNQNTETKDRKSR | 4.41
AEVVKIRDSFSNQNTETKDGKSR | 2.51
AEVVKIRDSFSNQNTETKDAKSR | 1.79
AEVVKIRDSFSNQNTETKDMKSR | 1.96
AEVVKIRDSFSNQNTETKDDKSR | 2.23
AEVVKIRDSFSNQNTETKDHKSR | 2.09
AEVVKIRDSFSNQNTETKDIKSR | 2.7
AEVVKIRDSFSNQNTETKDSKSR | 1.79
AEVVKIRDSFSNQNTETKDKKSR | 4.33
AEVVKIRDSFSNQNTETKDTKSP | 5.32
AEVVKIRDSFSNQNTETKDTKSK | 5.49
AEVVKIRDSFSNQNTETKDTKSY | 4.56
AEVVKIRDSFSNQNTETKDTKST | 5.55
AEVVKIRDSFSNQNTETKDTKSD | 5.6
AEVVKIRDSFSNQNTETKDTKSG | 4.84
AEVVKIRDSFSNQNTETKDTKSF | 4.83
AEVVKIRDSFSNQNTETKDTKSL | 5.49
AEVVKIRDSFSNQNTETKDTKSC | 4.75
AEVVKIRDSFSNQNTETKDTKSE | 5.85
AEVVKIRDSFSNQNTETKDTKSM | 5.38
AEVVKIRDSFSNQNTETKDTKSW | 3.23
AEVVKIRDSFSNQNTETKDTKSA | 5.57

Variant | protein stability index
AEVVKIRDSFSNQNTETKDTKSI | 4.91
AEVVKIRDSFSNQNTETKDTKSQ | 5.65
AEVVKIRDSFSNQNTETKDTKSV | 5.51
AEVVKIRDSFSNQNTETKDTKSN | 5.26
AEVVKIRDSFSNQNTETKDTKSH | 5.37
AEVVKIRDSFSNQNTETKDTKMR | 4.06
AEVVKIRDSFSNQNTETKDTKIR | 3.14
AEVVKIRDSFSNQNTETKDTKKR | 2.92
AEVVKIRDSFSNQNTETKDTKHR | 3.48
AEVVKIRDSFSNQNTETKDTKQR | 3.03
AEVVKIRDSFSNQNTETKDTKGR | 1.89
AEVVKIRDSFSNQNTETKDTKRR | 2.75
AEVVKIRDSFSNQNTETKDTKYR | 3.36
AEVVKIRDSFSNQNTETKDTKER | 3.8
AEVVKIRDSFSNQNTETKDTKDR | 3.23
AEVVKIRDSFSNQNTETKDTKFR | 4.11
AEVVKIRDSFSNQNTETKDTKAR | 1.93
AEVVKIRDSFSNQNTETKDTKNR | 2.88
AEVVKIRDSFSNQNTETKDTKTR | 3.04
AEVVKIRDSFSNQNTETKDTKPR | 4.53
AEVVKIRDSFSNQNTETKDTKLR | 3.48
AEVVKIRDSFSNQNTETKDTKVR | 2.98

Variant | protein stability index
AEVVKIRDSFSNQNTETKDTKCR | 1.82
AEVVKIRDSFSNQNTETKDTKWR | 3.96
AEVVKIRDSFSNQNTETKDTMSR | 4.99
AEVVKIRDSFSNQNTETKDTHSR | 2.96
AEVVKIRDSFSNQNTETKDTNSR | 5.59
AEVVKIRDSFSNQNTETKDTSSR | 5.01
AEVVKIRDSFSNQNTETKDTDSR | 5.42
AEVVKIRDSFSNQNTETKDTTSR | 4.87
AEVVKIRDSFSNQNTETKDTESR | 5.2
AEVVKIRDSFSNQNTETKDTLSR | 4.19
AEVVKIRDSFSNQNTETKDTPSR | 3.51
AEVVKIRDSFSNQNTETKDTGSR | 5.44
AEVVKIRDSFSNQNTETKDTISR | 4.85
AEVVKIRDSFSNQNTETKDTFSR | 4.8
AEVVKIRDSFSNQNTETKDTWSR | 3.92
AEVVKIRDSFSNQNTETKDTRSR | 1.71
AEVVKIRDSFSNQNTETKDTASR | 5.24
AEVVKIRDSFSNQNTETKDTVSR | 4.89
AEVVKIRDSFSNQNTETKDTCSR | 4.39
AEVVKIRDSFSNQNTETKDTYSR | 3.57
AEVVKIRDSFSNQNTETKDTQSR | 4.95

Variants of: B2
Assay: as above
Conditions: c terminus: a fixed tail appended

Variant | protein stability index
EMVLFLLEAGADQEHKTDEMHTAL | 2.35
EMVWFLLEAGADQEHKTDEMHTAL | 2.08
EMVFFLLEAGADQEHKTDEMHTAL | 2.77
EMVGFLLEAGADQEHKTDEMHTAL | 3.86
EMVQFLLEAGADQEHKTDEMHTAL | 3.61
EMVHFLLEAGADQEHKTDEMHTAL | 3.2
EMVDFLLEAGADQEHKTDEMHTAL | 4.17
EMVEFLLEAGADQEHKTDEMHTAL | 3.47
EMVCFLLEAGADQEHKTDEMHTAL | 3.14
EMVYFLLEAGADQEHKTDEMHTAL | 2.35
EMVTFLLEAGADQEHKTDEMHTAL | 3.22
EMVIFLLEAGADQEHKTDEMHTAL | 2.19
EMVVFLLEAGADQEHKTDEMHTAL | 2.65
EMVNFLLEAGADQEHKTDEMHTAL | 3.22
EMVAFLLEAGADQEHKTDEMHTAL | 2.99
EMVMFLLEAGADQEHKTDEMHTAL | 2.46
EMVKFLLEAGADQEHKTDEMHTAL | 3.22
EMVSFLLEAGADQEHKTDEMHTAL | 3.64
EMVPFLLEAGADQEHKTDEMHTAL | 4.8
EMVRDLLEAGADQEHKTDEMHTAL | 4.92
EMVRHLLEAGADQEHKTDEMHTAL | 3.48

Variant | protein stability index
EMVRGLLEAGADQEHKTDEMHTAL | 4.11
EMVRALLEAGADQEHKTDEMHTAL | 3.9
EMVRCLLEAGADQEHKTDEMHTAL | 3.77
EMVRELLEAGADQEHKTDEMHTAL | 4.71
EMYRFLLEAGADQEHKTDEMHTAL | 3.02
EMNRFLLEAGADQEHKTDEMHTAL | 4.47
EMIRFLLEAGADQEHKTDEMHTAL | 3.11
EMHRFLLEAGADQEHKTDEMHTAL | 4.55
EMERFLLEAGADQEHKTDEMHTAL | 5.24
EMFRFLLEAGADQEHKTDEMHTAL | 2.97
EMSRFLLEAGADQEHKTDEMHTAL | 4.82
EMLRFLLEAGADQEHKTDEMHTAL | 2.62
EMGRFLLEAGADQEHKTDEMHTAL | 4.81
EMTRFLLEAGADQEHKTDEMHTAL | 4.51
EMPRFLLEAGADQEHKTDEMHTAL | 4.83
EMMRFLLEAGADQEHKTDEMHTAL | 2.87
EMCRFLLEAGADQEHKTDEMHTAL | 3.84
EMRRFLLEAGADQEHKTDEMHTAL | 4.56
EMKRFLLEAGADQEHKTDEMHTAL | 4.2
EMARFLLEAGADQEHKTDEMHTAL | 4.03
EMDRFLLEAGADQEHKTDEMHTAL | 5.21

Variant | protein stability index
EMWRFLLEAGADQEHKTDEMHTAL | 2.65
EMQRFLLEAGADQEHKTDEMHTAL | 4.44
VMVRFLLEAGADQEHKTDEMHTAL | 2.12
GMVRFLLEAGADQEHKTDEMHTAL | 3.41
IMVRFLLEAGADQEHKTDEMHTAL | 1.74
LMVRFLLEAGADQEHKTDEMHTAL | 2.16
NMVRFLLEAGADQEHKTDEMHTAL | 3.37
QMVRFLLEAGADQEHKTDEMHTAL | 2.9
TMVRFLLEAGADQEHKTDEMHTAL | 2.73
KMVRFLLEAGADQEHKTDEMHTAL | 2.48
CMVRFLLEAGADQEHKTDEMHTAL | 2.48
FMVRFLLEAGADQEHKTDEMHTAL | 2.56
PMVRFLLEAGADQEHKTDEMHTAL | 4.17
WMVRFLLEAGADQEHKTDEMHTAL | 2.05
AMVRFLLEAGADQEHKTDEMHTAL | 2.3
DMVRFLLEAGADQEHKTDEMHTAL | 2.82
YMVRFLLEAGADQEHKTDEMHTAL | 2.54
MMVRFLLEAGADQEHKTDEMHTAL | 1.97
HMVRFLLEAGADQEHKTDEMHTAL | 2.75
RMVRFLLEAGADQEHKTDEMHTAL | 2.81
SMVRFLLEAGADQEHKTDEMHTAL | 3.41

Variant | protein stability index
EYVRFLLEAGADQEHKTDEMHTAL | 2.81
EGVRFLLEAGADQEHKTDEMHTAL | 4.74
ERVRFLLEAGADQEHKTDEMHTAL | 4.21
ETVRFLLEAGADQEHKTDEMHTAL | 4.4
EQVRFLLEAGADQEHKTDEMHTAL | 4.64
ENVRFLLEAGADQEHKTDEMHTAL | 5.32
EEVRFLLEAGADQEHKTDEMHTAL | 4.73
EAVRFLLEAGADQEHKTDEMHTAL | 3.71
EFVRFLLEAGADQEHKTDEMHTAL | 1.97
ESVRFLLEAGADQEHKTDEMHTAL | 4.63
EVVRFLLEAGADQEHKTDEMHTAL | 2.73
EIVRFLLEAGADQEHKTDEMHTAL | 1.93
EPVRFLLEAGADQEHKTDEMHTAL | 4.75
ECVRFLLEAGADQEHKTDEMHTAL | 3.4
EKVRFLLEAGADQEHKTDEMHTAL | 4.64
ELVRFLLEAGADQEHKTDEMHTAL | 1.95
EWVRFLLEAGADQEHKTDEMHTAL | 2.5
EDVRFLLEAGADQEHKTDEMHTAL | 5.29
EHVRFLLEAGADQEHKTDEMHTAL | 4.21
